Kd data for 2 molecules are collected here from patent publication US20110294728, “Antiviral Polypeptides” (published 2011).

In series [1] the target is HIV-1 reverse transcriptase p66/p51 in complex with PAW peptide (HIV-1 (BH10), UniProt P03366;P03366 P03366:600-1159,P03366:600-1039). As to the kind of experiment: steady-state fluorescence quenching; 10 uM PAW; 50 mM Tris-HCl pH 8.0, 50 mM KCl, 10 mM MgCl2, 25 C. Conditions: protein: synthetic; label: 6-FAM at primer 3' end; primer/template with 5' single-stranded template overhang.

Series [2] addresses HIV-1 reverse transcriptase p66/p51 heterodimer (HIV-1 (BH10), UniProt P03366;P03366 P03366:600-1159,P03366:600-1039). Kind of series: steady-state fluorescence quenching; 50 mM Tris-HCl pH 8.0, 50 mM KCl, 10 mM MgCl2, 1 mM DTT, 25 C. To be noted: tags: recombinant from E. coli; His-tagged and untagged preparations described, form used in the titration not specified; label: 6-FAM at primer 3' end; primer/template with 5' single-stranded template overhang.

Series [3] has as its target HIV-1 reverse transcriptase p66/p51 in complex with FITC-PAW (HIV-1 (BH10), UniProt P03366;P03366 P03366:600-1159,P03366:600-1039). As to the kind of experiment: quenching of FITC-PAW pre-bound to RT on titration with unlabelled p/t; 10 mM MgCl2, 25 C. Conditions: tags: PAW with C-terminal Cys-FITC; primer/template with 5' single-stranded template overhang.

B1: 19/36-mer DNA/DNA primer/template (HIV-1 PBS) (dsDNA)
DNA 1: TCCCTGTTCGGGCGCCACT
DNA 2: TGTGGAAAATCTCATGCAGTGGCGCCCGAACAGGGA
The Kd is the concentration at which binding is half-saturated. For B1, the Kd in series [1] was 99 nM; in series [2] it was 22 nM.

B2: 19/36-mer (printed 18/36) DNA/DNA primer/template, unlabelled (dsDNA)
DNA 1: TCCCTGTTCGGGCGCCACT
DNA 2: TGTGGAAAATCTCATGCAGTGGCGCCCGAACAGGGA
B2 showed a Kd in series [3] of 66.5 nM.
